Laboratory results from publication PMC5777896 (The FEBS journal, 2017).
Read-outs that look alike come from different tables or passages of the source.

B1: human Hsc20 (natural protein, UniProt Q8IWL3 72-235, looked up)
chain: DYFSLMDCNRSFRVDTAKLQHRYQQLQRLVHPDFFSQRSQTEKDFSEKHSTLVNDAYKTLLAPLSRGLYLLKLHGIEIPERTDYEMDRQFLIEIMEINEKLAEAESEAAMKEIESIVKAKQKEFTDNVSSAFEQDDFEEAKEILTKMRYFSNIEEKIKLKKIPL
B2: full-length human Nfu (natural protein, UniProt Q9UMS0 10-254, looked up)
chain: GAAAVAAGLRRRFCHMLKNPYTIKKQPLHQFVQRPLFPLPAAFYHPVRYMFIQTQDTPNPNSLKFIPGKPVLETRTMDFPTPAAAFRSPLARQLFRIEGVKSVFFGPDFITVTKENEELDWNLLKPDIYATIMDFFASGLPLVTEETPSGEAGSEEDDEVVAMIKELLDTRIRPTVQEDGGDVIYKGFEDGIVQLKLQGSCTSCPSSIITLKNGIQNMLQFYIPEVEGVEQVMDDESDEKEANSP

Experiments:
human HSPA9 (human) [1] = molecular target: human HSPA9 (human) (UniProt P38646); assay: ITC
human Hsc20 (human) [2] = molecular target: human Hsc20 (human) (UniProt Q8IWL3); assay: ITC
human Hsc20 (human) [3] = molecular target: human Hsc20 (human) (UniProt Q8IWL3); assay: ITC; remark: listed apart in the source
human HSPA9 (human) [4] = molecular target: human HSPA9 (human) (UniProt P38646); assay: ITC; remark: listed apart in the source
human HSPA9 (human) [5] = molecular target: human HSPA9 (human) (UniProt P38646); assay: ITC; remark: listed apart in the source
human HSPA9 (human) [6] = molecular target: human HSPA9 (human) (UniProt P38646)
human HSPA9 (human) [7] = molecular target: human HSPA9 (human) (UniProt P38646); assay: ITC; remark: listed apart in the source
IscU (Escherichia coli) = IscU (Escherichia coli) (UniProt P0ACD4); assay: SPR; details: cited from earlier work
full-length human Nfu = molecular target: B2; assay: ITC
[8] = molecular target: T1, human HSPA9/Hsc20 complex (human, UniProt P38646 47-679; Q8IWL3 72-235); assay: ITC
human Hsc20 = molecular target: B1; assay: ITC
human HSPA9 [9] = molecular target: T2, human HSPA9 (human, UniProt P38646 47-679); assay: cell-based or functional assay
human HSPA9 [10] = molecular target: T2, human HSPA9; assay: ITC
human HSPA9 [11] = molecular target: T2, human HSPA9; assay: ITC; remark: listed apart in the source
[12] = molecular target: T1, human HSPA9/Hsc20 complex; assay: ITC; remark: listed apart in the source

human HSPA9 (human), sequence (P38646 47-679): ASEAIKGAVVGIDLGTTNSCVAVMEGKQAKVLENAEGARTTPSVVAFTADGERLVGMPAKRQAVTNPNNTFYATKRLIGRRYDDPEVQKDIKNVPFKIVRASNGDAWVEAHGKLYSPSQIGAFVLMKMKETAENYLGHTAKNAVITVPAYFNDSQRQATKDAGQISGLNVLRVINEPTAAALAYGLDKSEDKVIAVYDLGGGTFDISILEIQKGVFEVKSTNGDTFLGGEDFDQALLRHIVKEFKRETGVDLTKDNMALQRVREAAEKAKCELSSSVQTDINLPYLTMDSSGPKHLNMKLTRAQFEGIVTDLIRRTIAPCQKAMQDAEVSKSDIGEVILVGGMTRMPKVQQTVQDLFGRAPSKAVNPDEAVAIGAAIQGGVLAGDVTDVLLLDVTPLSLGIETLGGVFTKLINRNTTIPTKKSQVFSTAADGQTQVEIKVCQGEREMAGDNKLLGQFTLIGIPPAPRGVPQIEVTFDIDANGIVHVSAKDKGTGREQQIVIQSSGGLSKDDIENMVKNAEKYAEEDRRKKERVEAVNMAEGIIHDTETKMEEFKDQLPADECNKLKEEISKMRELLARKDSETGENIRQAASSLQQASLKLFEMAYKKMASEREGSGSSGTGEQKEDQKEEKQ
T1 sequence (P38646 47-679, one chain of several): as the sequence (P38646 47-679) above
T2 sequence (P38646 47-679): as above
IscU (Escherichia coli), sequence (P0ACD4 whole entry): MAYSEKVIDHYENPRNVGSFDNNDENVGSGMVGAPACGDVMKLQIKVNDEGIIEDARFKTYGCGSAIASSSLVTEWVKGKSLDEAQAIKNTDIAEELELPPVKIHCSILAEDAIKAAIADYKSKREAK

For “C-terminal domain of human Nfu (from UniProt Q9UMS0 10-254) (domain or fragment)”, the Kd (human HSPA9 (human) [1]) was 51 µM, the dH (human HSPA9 (human) [1]) was -3.2 kcal/mol and the Kd (human Hsc20 (human) [2]) was 11 µM. The dH (human Hsc20 (human) [2]) was -1.7 kcal/mol, the stoichiometry N (human Hsc20 (human) [2]) was 0.94 and the Kd (human Hsc20 (human) [3]) was 10 µM. The dH (human Hsc20 (human) [3]) was -0.57 kcal/mol, the stoichiometry N (human Hsc20 (human) [3]) was 0.79 and the Kd (human HSPA9 (human) [4]) was 14.9 µM. It also gave a dH (human HSPA9 (human) [4]) of -3.82 kcal/mol, a stoichiometry N (human HSPA9 (human) [4]) of 0.88 and a Kd (human HSPA9 (human) [5]) of 30.3 µM. It also gave a dH (human HSPA9 (human) [5]) of -2 kcal/mol, a stoichiometry N (human HSPA9 (human) [5]) of 0.907 and a Vmax (maximum ratio of stimulation) of HSPA9 ATPase activity by C-Nfu, 0~150 µM (human HSPA9 (human) [6]) of 2.44 fold. It also gave a Kd (human HSPA9 (human) [7]) of 18 µM and a dH (human HSPA9 (human) [7]) of -7.3 kcal/mol.

In the case of HscA (from UniProt P0A6Z1), the Kd (IscU (Escherichia coli)) is listed as 39 µM.

Molecule B1 has a Kd (full-length human Nfu) of 10 ± 1 µM.

In the case of B2, the Kd [8] is reported as 9.43 ± 0.07 µM, the dH [8] is reported as -1.7 ± 0.1 kcal/mol and the “stoichiometry N” value [8] is reported as 0.985 ± 0.04. For the same molecule, the “stoichiometry N” value (human Hsc20) was 0.93 ± 0.06, the “Vmax (maximum ratio of stimulation) of HSPA9 ATPase activity by Nfu, 0~150 µM” value (human HSPA9 [9]) was 3.78 fold and the Kd (human HSPA9 [10]) was 8.3 ± 1.4 µM. The dH (human HSPA9 [10]) was -6.3 ± 0.7 kcal/mol, the “stoichiometry N” value (human HSPA9 [10]) was 0.9 ± 0.1 and the Kd (human HSPA9 [11]) was 36 ± 4 µM. For the same molecule, the dH (human HSPA9 [11]) was -4.9 ± 0.1 kcal/mol, the “stoichiometry N” value (human HSPA9 [11]) was 0.9 ± 0.2 and the Kd [12] was 0.3 ± 0.1 µM. The dH [12] was -3.4 ± 0.1 kcal/mol and the “stoichiometry N” value [12] was 0.95 ± 0.02.
